The target in this assay is CD3 on CD3+ Jurkat cells (human, UniProt P07766 23-207). The experiment in a line: FACS binding, Jurkat cells. For orientation: Flow cytometry measures light scatter and fluorescence of single cells or particles in a stream.
Chain of CD3 on CD3+ Jurkat cells (P07766 23-207): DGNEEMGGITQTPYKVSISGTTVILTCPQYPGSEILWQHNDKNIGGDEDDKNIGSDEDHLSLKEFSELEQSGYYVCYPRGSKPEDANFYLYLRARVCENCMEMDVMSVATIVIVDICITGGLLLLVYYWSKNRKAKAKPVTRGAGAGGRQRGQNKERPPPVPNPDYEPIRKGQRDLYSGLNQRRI

B1: m-13/CD3-v2 (antibody)
chain 1: QLQLQQSGTELVRPGSSVKISCKASGYAFSNYWMNWVKQRPGQGLEWIGQIYPGNGDTKYNGNFKGKATLTADKSSSTAYMQLSSLTSEDSADYFCARYYRGNCFDYWGQGTTLTVSS
chain 2: DIVLTQSPSSLTVTAGEKVTMSCKSSQSLLNSGNQKNYLTWYQQKPGQPPKLLIYWASTRDSGVPARFTGSGSGTDFTLTINSVQAEDLAVYYCQNAYTYPLTFGAGTKLEIK
chain 3: EVQLVESGGGLVKPGGSLKLSCAASGFTFSTYAMNWVRQAPGKGLEWVARIRSKYNNYATTYADSVKDRFTISRDDSKNTAYLQMNNLRTEDTAVYYCVRHGNWGNSYISYWAYWGQGTTVTVSS
chain 4: not shown
As a reminder, the EC50 is the concentration that produces a half-maximal response. The low end stands for an effect from little substance, the high end for a need for much substance. For B1, a half-maximal response (EC50) required 26.5 nM.
